Assays:
[1] = target: T1, recombinant soluble human CD93 extracellular domain fused to a 6xHis tag (human, UniProt Q9NPY3 24-580); test: SPR (BIAcore), 4E1 immobilized on chip, recombinant CD93 injected, 1:1 fit
T1 construct: extracellular domain; also called recombinant CD93; soluble CD93 protein
T1 sequence: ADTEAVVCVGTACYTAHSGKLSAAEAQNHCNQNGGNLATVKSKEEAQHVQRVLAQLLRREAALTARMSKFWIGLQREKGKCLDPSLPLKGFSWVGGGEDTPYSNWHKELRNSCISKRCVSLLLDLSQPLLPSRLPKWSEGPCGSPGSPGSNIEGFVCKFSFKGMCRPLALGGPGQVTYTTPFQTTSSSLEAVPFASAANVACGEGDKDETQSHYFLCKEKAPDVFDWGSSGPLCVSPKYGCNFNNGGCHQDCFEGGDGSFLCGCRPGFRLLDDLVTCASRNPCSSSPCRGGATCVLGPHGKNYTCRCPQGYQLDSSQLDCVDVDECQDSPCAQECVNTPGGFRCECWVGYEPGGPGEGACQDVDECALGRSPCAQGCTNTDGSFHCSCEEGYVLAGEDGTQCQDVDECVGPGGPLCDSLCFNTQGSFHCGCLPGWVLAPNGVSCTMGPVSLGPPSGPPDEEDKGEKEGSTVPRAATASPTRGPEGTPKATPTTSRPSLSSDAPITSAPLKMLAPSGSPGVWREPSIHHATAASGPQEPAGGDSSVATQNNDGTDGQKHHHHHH
Description: The binding analysis was performed using a BIAcore 3000 equipped with a CM5 sensor chip. Briefly, 4E1 antibody was immobilized via amine groups on a CM5 sensor chip following standard procedures (flow rate 5 μl/min). For the immobilization, 4E1 diluted in 10 mM Na acetate pH 4.0 at the concentration of 10 μg/ml was injected for 360 sec over the dextran matrix on flow cell, which had been previously activated with a mixture of EDC-NHS for 420 sec. After injection of the antibody, a pulse of Ethanolamine 1M was performed to neutralize activated groups. A reference flow cell to be used as blank, was simultaneously subjected to identical procedures, but the injection of Antibody, which was substituted with injection of dilution buffer alone (HBS-EP+). Recombinant purified CD93 protein was diluted in HBS-EP+ at different concentration (1 μg/ml, 2.5 μg/ml, […] and 20 μg/ml) and injected for 180 s at a flow rate of 60 μl/min on flow cell 4 and on reference flow cell 3. […] Sensorgrams illustrated in the figure are obtained by subtraction from sensorgrams on Fc4 of those obtained on Fc3. Kinetic rates were calculated applying a 1:1 binding as fitting model using the Bia T200 evaluation software 2.0.1

human full-length CD93 = target: T2, human full-length CD93 (human, UniProt Q9NPY3 22-652); test: immunofluorescence on fixed, permeabilized late spreading HUVECs
T2 construct: whole, on cells; Used in two settings; also called human CD93 protein
T2 sequence (looked up): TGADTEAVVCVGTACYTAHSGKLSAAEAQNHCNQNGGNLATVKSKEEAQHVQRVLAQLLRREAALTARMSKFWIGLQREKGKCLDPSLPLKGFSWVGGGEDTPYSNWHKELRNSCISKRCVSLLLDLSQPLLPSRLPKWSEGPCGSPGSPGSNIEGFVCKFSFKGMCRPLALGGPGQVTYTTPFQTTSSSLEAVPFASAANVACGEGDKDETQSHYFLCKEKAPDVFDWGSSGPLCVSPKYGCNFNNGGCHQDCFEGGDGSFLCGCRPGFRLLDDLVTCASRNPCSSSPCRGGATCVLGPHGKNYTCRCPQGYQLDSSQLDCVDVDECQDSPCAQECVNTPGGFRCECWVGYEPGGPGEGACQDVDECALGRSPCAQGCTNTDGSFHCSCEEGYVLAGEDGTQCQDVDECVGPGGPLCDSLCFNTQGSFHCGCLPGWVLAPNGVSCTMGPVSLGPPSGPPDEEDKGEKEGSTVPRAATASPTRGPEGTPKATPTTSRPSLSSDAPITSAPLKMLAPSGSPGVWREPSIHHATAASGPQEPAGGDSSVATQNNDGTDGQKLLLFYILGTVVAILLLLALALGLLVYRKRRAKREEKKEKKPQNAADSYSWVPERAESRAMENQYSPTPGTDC
Description: Zip Alexa Fluor Rapid Antibody Labeling kit (Thermo Fisher Scientific) was used to efficiently and quickly label the mAb 4E1 with Alexa Fluor 488 following the manufacturer's instructions. Briefly, 10 μl of 1 M sodium bicarbonate solution were added to 100 μl of 4E1 solution (1 mg/ml). Next, the antibody solution was incubated for 15 min at room temperature with the fluorochrome solution (Component B) and used in immunofluorescence experiments.
Cells were seeded onto gelatin-coated glass coverslips and fixed in 3% paraformaldehyde for 15 min at room temperature during the late spreading phase. Samples were permeabilized with 0.1% Triton X-100 in PBS, and blocked with 0.3% w/v BSA in PBS, each for 15 min at room temperature. Next, cells were washed with PBS and incubated 1 h at room temperature with Alexa Fluor 488-labeled 4E1 and rabbit anti-MMRN2 antibodies. Then, samples were washed three times with PBS/0.1% Tween-20 and incubated with secondary Alexa Fluor 568-labeled anti-rabbit antibodies (Thermo Fisher Scientific), diluted at 25 μg/mL in PBS/0.1% Tween-20. After washing, coverslips were mounted with Mowiol mounting medium. Fluorescent images were captured using a Leica TCS SP2 AOBS confocal laser-scanning microscope and overlaid images were produced. A Leica HCX PL APO Ibd.BL 63×/1.40 oil objective was used. […]

[2] = target: T1, recombinant soluble human CD93 …; test: SPR (BIAcore), rec4E1 immobilized on chip, recombinant CD93 injected, 1:1 fit
Description: The binding analysis was performed using a BIAcore 3000 equipped with a CM5 sensor chip. Briefly, rec4E1 or 4E1 antibodies were immobilized via amine groups on a CM5 sensor chip following standard procedures. For the immobilization, the antibody diluted in 10 mM Na acetate pH 4.0 at the concentration of 10 μg/ml was injected for 360 sec over the dextran matrix on flow cell, which had been previously activated with a mixture of EDC-NHS for 420 sec. After injection of the antibody, a pulse of Ethanolamine 1 M was used to neutralize activated groups. A reference flow cell to be used as blank was simultaneously subjected to identical procedures, but the antibody was substituted with dilution buffer (HBS-EP+). Recombinant purified CD93 protein was diluted in HBS-EP+ at different concentration (10, 25, 50, 100, 250, and 500 ng/mL) and injected for 180 s at a flow rate of 60 μl/min on all flow cells. […] Kinetic rates were calculated applying a 1:1 binding as fitting model using the Bia T200 evaluation software 2.0.1.

B1: anti-CD93 monoclonal antibody 4E1 (from hybridoma) (antibody, IgG1, V domains shown)
VH: QEQLQQPGTELVKPGASVRLSCKTSGYTFASYTLHWVKQTPGQGLDWIGAIYPGNGDTSYNQKFKDKATLTADKSSSTAYMQLSNLTSEDSAVYYCARLDWYFDLWGAGTTVTVS
VL: DIVLTQSPTSLAVSLGQRATISCKASQSVDYDGDSYMNWYQQKPGQPPRLLIYAASNLESGIPARFSGSGSGTDFTLNIHPVEEEDAATYYCQQNNEDPRTFGGGTKLEIK
notes: Mouse hybridoma antibody, full length, isotype IgG1 with k light chain; also called mAb 4E1; anti-CD93 4E1 mAb
B1 was tested, and the Kd [1] was 0.45 nM.

B2: Alexa Fluor 488-labeled 4E1 (antibody, V domains shown)
VH: QEQLQQPGTELVKPGASVRLSCKTSGYTFASYTLHWVKQTPGQGLDWIGAIYPGNGDTSYNQKFKDKATLTADKSSSTAYMQLSNLTSEDSAVYYCARLDWYFDLWGAGTTVTVS
VL: DIVLTQSPTSLAVSLGQRATISCKASQSVDYDGDSYMNWYQQKPGQPPRLLIYAASNLESGIPARFSGSGSGTDFTLNIHPVEEEDAATYYCQQNNEDPRTFGGGTKLEIK
modifications: Alexa Fluor 488 dye conjugated to the antibody (site and chain not stated)
notes: mAb 4E1 (mouse IgG1 k) labelled with the Zip Alexa Fluor Rapid Antibody Labeling kit; also called conjugated 4E1
B2: binds (human full-length CD93).

B3: recombinant anti-CD93 monoclonal antibody rec4E1 (antibody, V domains shown)
VH: QEQLQQPGTELVKPGASVRLSCKTSGYTFASYTLHWVKQTPGQGLDWIGAIYPGNGDTSYNQKFKDKATLTADKSSSTAYMQLSNLTSEDSAVYYCARLDWYFDLWGAGTTVTVS
VL: DIVLTQSPTSLAVSLGQRATISCKASQSVDYDGDSYMNWYQQKPGQPPRLLIYAASNLESGIPARFSGSGSGTDFTLNIHPVEEEDAATYYCQQNNEDPRTFGGGTKLEIK
notes: Whole recombinant IgG1 expressed in CHO cells from the pTRIOZ vector; The light chain constant region is not described; also called recombinant 4E1
B3 gave a Kd [2] of 0.00509 nM.
